In patent US20160208003A1 (AFFITECH RESEARCH, published 2016):

B1: 9E10J IgG (full length human IgG1, lambda) (antibody, V domains shown)
VH: QVQLVQSGAEVKKPGSSVKVSCKASGGTFSSYAISWVRQAPGQGLEWMGGIIPIFGTANYAQKFQGRVTMTRDTSTSTVYMELSSLRSEDTAVYYCARRGGSYFDYWGQGTLVTVSS
VL: SYVLTQPPSASGTPGQSVTISCSGSTSNIGSHYVFWYQQLPGTAPRLLIYRNHQRPSGVPDRLSGSKSGTSASLAISGLRSEDEADYYCAVWDDTLSGWVFGGGTKLTVLG
notes: also called IgG 9E10J; unmodified 9E10J
B2: 9E IgG (full length human IgG1, lambda) (antibody, V domains shown)
VH: QVQLVQSGAEVKKPGSSVKVSCKASGGTFSNYAISWVRQAPGQGLEWMGGIIPIFGTANYAQKFQGRVTITADESTSTAYMELSSLRSEDTAVYYCARRGGSYFDYWGQGTLVTVSS
VL: SYVLTQPPSASGTPGQSVTISCSGSTSNIGSHYVFWYQQLPGTAPRLLIYRNHQRPSGVPDRLSGSKSGTSASLAISGLRSEDEADYYCAVWDDTLSGWVFGGGTKLTVLG
notes: also called IgG 9E; IgG1 9E

Key:
mouse CCR4 = target: T1, mouse CCR4 (mouse, UniProt P51680 1-360); experiment: flow cytometry on HEK-293T/17 cells transiently transfected with mouse CCR4, anti-human-IgG-PE detection
T1 construct: whole, on cells; also called murine CCR4
T1 sequence (looked up): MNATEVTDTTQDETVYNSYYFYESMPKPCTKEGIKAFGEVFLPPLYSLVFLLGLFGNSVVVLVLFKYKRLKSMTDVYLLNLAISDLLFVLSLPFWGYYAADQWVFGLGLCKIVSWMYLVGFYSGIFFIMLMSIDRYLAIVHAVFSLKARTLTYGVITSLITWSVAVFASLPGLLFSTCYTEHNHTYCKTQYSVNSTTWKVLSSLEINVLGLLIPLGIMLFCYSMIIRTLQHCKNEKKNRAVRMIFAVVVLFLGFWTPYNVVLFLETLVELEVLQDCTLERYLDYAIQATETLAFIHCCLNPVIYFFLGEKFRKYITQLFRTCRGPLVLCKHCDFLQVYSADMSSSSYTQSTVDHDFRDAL
Method: For transient transfection, Hek293T/17 cells were seeded as 2×10^6 cells in a T75 (NUNC) flask. 48 h after seeding, the cells were transfected with Fugene (ROCHE). 40 μl Fugene and 16 μg DNA are used per T75. The cells were used for assays 48 h after transfection.
HEK-293T/17 cells, were transiently transfected either with pcDNA3.1 plasmid encoding human CCR4 or with pLNO plasmids (Norderhaug et al, 1997) encoding either mouse (GeneBank CAA62372) or monkey (Macaca mulatta) CCR4 (PubMed access number XP_001098807) using Fugene (Roche) as a transfection reagent. Non-transfected (CCR4 negative) cells served as a negative control. The cells were cultivated further for 48 hours under regular conditions described above. The cells were washed twice with PBS, detached from the culture flasks by incubating with Accutase (PAA laboratories, Linz, Austria) for 3 minutes at room temperature. The cells were then washed 2 times with PBS (400×g, 5 min, 4° C.) and resuspended in PBS containing 0.2% BSA and 0.09% NaN₃. 1×10⁵ cells per well were aliquoted into V-shaped 96-well plates (Griner Bio-One, Frikenhausen, Germany). Cells were centrifuged (400×g, 5 min, 4° C.) and resuspended in 50 μl of 10 μg/ml 9E or 9E10J, in PBS containing 0.2% BSA and 0.09% NaN3. The cells were incubated further at 4° C. for 60 min. The samples were then washed twice by centrifugation and re-suspension in 100 μl FACS buffer. […]

[1] = target: T2, human CC chemokine receptor 4 (CCR4) (human, UniProt P51679 1-360); experiment: calculated from the IC50; DT-40-CCR4+ cells, competitor 0.7 nM biotinylated IgG 9E
T2 construct: whole, on cells; Always presented on cells; also called CD194; human CCR4
T2 sequence (looked up): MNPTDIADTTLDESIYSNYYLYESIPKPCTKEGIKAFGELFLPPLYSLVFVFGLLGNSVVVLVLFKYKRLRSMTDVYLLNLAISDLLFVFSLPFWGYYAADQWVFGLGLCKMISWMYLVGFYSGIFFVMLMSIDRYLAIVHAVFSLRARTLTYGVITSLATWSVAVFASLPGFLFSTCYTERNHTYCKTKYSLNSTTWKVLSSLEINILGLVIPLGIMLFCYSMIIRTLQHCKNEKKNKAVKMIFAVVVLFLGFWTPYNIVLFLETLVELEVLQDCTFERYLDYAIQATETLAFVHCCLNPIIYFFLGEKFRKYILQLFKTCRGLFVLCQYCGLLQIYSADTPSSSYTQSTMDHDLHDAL
Method: DT40 and CCRF-CEM cells were cultivated as described in Example 2. The cells were harvested from culture flasks, washed 2 times with PBS (400×g, 5 min, 4° C.) and resuspended in PBS containing 0.2% BSA and 0.09% NaN3. 1×10^5 cells per well were aliquoted into V-shaped 96-well plates (Griner Bio-One, Frikenhausen, Germany). Cells were centrifuged (400×g, 5 min, 4° C.) and resuspended in 50 μl IgG 9E10J or KM3060var (dilution series starting at 5 μg/ml) mixed with biotinylated competitor antibody 9E (0.1 or 0.5 μg/ml). The cells were incubated for 2 hours at 4° C., mixing with a pipette every 45 min. The cells were washed three times with 150 μl PBS with 0.2% BSA and 0.09% NaN3 and stained with 3 μg/ml streptavidin PE (BD Biosciences) for 45 minutes at 4° C. Cells were washed, resuspended in 200 μl PBS with 0.2% BSA and 0.09% NaN3, and transferred to a U-shaped 96 well Costar (Corning, Schiphol-Rijik, The Netherlands) plate for flow cytometry using an FACS Canto II flow cytometer (BD Biosciences, Heidelberg, Germany).

[2] = target: T2, human CC chemokine receptor 4 (CCR4); experiment: cell-based or functional assay
[3] = target: T2, human CC chemokine receptor 4 (CCR4); experiment: flow cytometry competition; antibody titrated, competitor biotinylated MDC; cell line not given
Method: The cells were harvested from culture flasks, washed 2 times with PBS (400×g, 5 min, 4° C.) and resuspended in PBS containing 0.2% BSA and 0.09% NaN3. 1×10^5 cells per well were aliquoted into V-shaped 96-well plates (Greiner Bio-One, Frikenhausen, Germany). Cells were centrifuged (400×g, 5 min, 4° C.) and resuspended in 50 μl IgG, single chain or unlabeled ligand (1:10 dilution series starting on 100/500/26, 4 μg/ml) mixed with a fixed concentration of biotinylated ligand (10 or 20 nM, see legend to FIG. 24). The cells were incubated for 2 hours at 4° C. and mixed with a pipette every 45 min. The cells were washed three times with 150 μl PBS with 0.2% BSA and 0.09% NaN3 and stained with 3 μg/ml streptavidin PE (BD Biosciences) for 45 minutes at 4° C. Cells were washed, resuspended in 200 μl PBS with 0.2% BSA and 0.09% NaN3, and transferred to a U-shaped 96 well Costar (Corning, Schiphol-Rijik, The Netherlands) plate for flow cytometry using an FACS Canto II flow cytometer (BD Biosciences, Heidelberg, Germany). […] Apparent binding affinities (KD) were calculated according to the following equation derived from previously described methods (Kipriyanov et al, 1997b; Schodin & Kranz, 1993): […]

Row | Binder | binding result (mouse CCR4) | Kd [1] | ADCC of CCRF-CEM cells, EC50 (mean, N=5) [2] | IC50 [3] | ADCC of CCRF-CEM cells, EC50 (mean, N=2) [2]
1 | B1 | no binding (tested: 10 µg/ml) | 0.05 nM | 0.0247 µg/mL | 0.85 nM | 
2 | B2 | no binding (tested: 10 µg/ml) | 0.39 nM |  | 3.9 nM | 0.186 µg/mL
